Results as given in patent publication US20200317739.

Legend:
[1] = test system: truncated FBP1^1-443 protein
[2] = test system: truncated FBP1^1-371 protein
[3] = test system: truncated FBP1^372-644 protein
[4] = test system: truncated FBP1^185-644 protein
[5] = test system: truncated FBP1^185-443 protein

Substance: purified recombinant EV71 viral protease wild-type 2A^pro
- in vitro proteinase cleavage kinetics of [35S] methionine-labeled FBP1 (data not shown) (wild-type FBP1 protein): Cp-N and Cp-C were detected after 15 minutes of incubation with 2A^pro, and the levels of Cp-N and Cp-C increased over the 4 hours of incubation
- in vitro proteinase cleavage of [35S] methionine-labeled FBP1 (SDS-PAGE, autoradiography) (wild-type FBP1 protein): FBP1 was cleaved by 2A^pro in a dose-dependent manner that resulted in two major Cps, a 38-kDa Cp designated as Cp-N, and a 33-kDa Cp designated as Cp-C
- in vitro proteinase cleavage assay (10 ug 2A^pro, 37 C, 4 hours) (FBP1-G364-380K): but not on mutant FBP1-G364-380K
- in vitro proteinase cleavage assay of truncated FBP1 proteins [1]: FBP1^1-443, FBP1^185-644 and FBP1^185-443 containing the Gly-371 cleavage site were cleaved by 2A^pro; a 38-kDa cleavage product was yielded from FBP1^1-443
- in vitro proteinase cleavage assay of truncated FBP1 proteins [2]: both truncated FBP1^1-371 and FBP1^372-644 proteins were not cleaved by 2A^pro
- in vitro proteinase cleavage assay (10 ug 2A^pro, 37 C, 4 hours) (FBP1-G345-362K): in vitro 2A^pro cleavage occurs on mutant FBP1-G345-362K
- in vitro proteinase cleavage assay (10 ug 2A^pro, 37 C, 4 hours) (FBP1-G364K): in comparison with FBP1-G364K, FBP1-G366K, FBP1-G374K and FBP1-G375K, FBP1-G371K could not be cleaved by 2A^pro
- in vitro proteinase cleavage assay of truncated FBP1 proteins [3]: both truncated FBP1^1-371 and FBP1^372-644 proteins were not cleaved by 2A^pro
- in vitro proteinase cleavage assay of truncated FBP1 proteins [4]: FBP1^1-443, FBP1^185-644 and FBP1^185-443 containing the Gly-371 cleavage site were cleaved by 2A^pro; 19-kDa cleavage product, and FBP1^185-644 also yielded a 33-kDa product
- in vitro proteinase cleavage assay (10 ug 2A^pro, 37 C, 4 hours) (FBP1-G375K): in comparison with FBP1-G364K, FBP1-G366K, FBP1-G374K and FBP1-G375K, FBP1-G371K could not be cleaved by 2A^pro
- in vitro proteinase cleavage assay of truncated FBP1 proteins [5]: FBP1^1-443, FBP1^185-644 and FBP1^185-443 containing the Gly-371 cleavage site were cleaved by 2A^pro; 19-kDa cleavage product
- in vitro proteinase cleavage assay (10 ug 2A^pro, 37 C, 4 hours) (FBP1-G366K): in comparison with FBP1-G364K, FBP1-G366K, FBP1-G374K and FBP1-G375K, FBP1-G371K could not be cleaved by 2A^pro
- in vitro proteinase cleavage assay (10 ug 2A^pro, 37 C, 4 hours) (FBP1-G374K): in comparison with FBP1-G364K, FBP1-G366K, FBP1-G374K and FBP1-G375K, FBP1-G371K could not be cleaved by 2A^pro
- in vitro proteinase cleavage assay (10 ug 2A^pro, 37 C, 4 hours) (FBP1-G371K): FBP1-G371K could not be cleaved by 2A^pro, as shown by the absence of Cp-N and Cp-C cleavage products
